According to the DeepSol protein solubility set:

Experiment: soluble on expression in E. coli; label from the status in PepcDB or PDB records

Q: With “ADQPIDADVTVIGSGPGGYVAAIKAAQLGFKTVCIEKNETLGGTCLNVGCIPSKALLNNSHYYHMAHGTDFASRGIEMSEVRLNLDKMMEQKSTAVKALTGGIAHLFKQNKVVHVNGYGKITGKNQVTATKADGGTQVIDTKNILIATGSEVTPFPGITIDEDTIVSSTGALSLKKVPEKMVVIGAGVIGVELGSVWQRLGADVTAVEFLGHVGGVGIDMEISKNFQRILQKQGFKFKLNTKVTGATKKSDGKIDVSIEAASGGKAEVITCDVLLVCIGRRPFTKNLGLEELGIELDPRGRIPVNTRFQTKIPNIYAIGDVVAGPMLAHKAEDEGIICVEGMAGGAVHIDYNCVPSVIYTHPEVAWVGKSEEQLKEEGIEYKVGKFPFAANSRAKTNADTDGMVKILGQKSTDRVLGAHILGPGAGEMVNEAALALEYGASCEDIARVCHAHPTLSEAFREANLAASFGKSINF” as the sequence, how does the “soluble on expression in E. coli” value read?
A: soluble

Q: With “MGSDKIHHHHHHMQDLVQAYKEEKNARIKERILAVKLHVVDGKSEKEVSKMLNKGYSTIKLWIGKYKKEGLDGLKDKPRSGRPRKVEEEKIKQILEDKPQKYGIQQEYWTMKTLKIALQEQGIEYKKSRLYELVHELGYNLVKPRPTNIQAEKDKWEDFKKIKKLERKALFFLDECRTVISTSIKKVLAKVGSKPVMRVNIGFSSIYVILAINAWTGEVVVSLAKRPNSESVKYFLRYFKRRVGSGRVYMVMDNYSPHKTKGTLEVCRRKGIHPVFTPPYSPELNMAEAVFKSLKNYMSNKIFYTIEDVKNCIKQFFEENKYRFNLNAITYLGLDKIEV” as the sequence, how does the “soluble on expression in E. coli” value read?
A: not soluble

Q: Which “soluble on expression in E. coli” value does the source give for “MKKWKVRSALVALIVLLAGCSSNAQYNSSASGNVGTAWGGDVHSTVQGVSAERAWRDPAEMIVISYSTNVPSGYDRVYSIRINELEYAIRDGNFNSLPITRVYDSSNNEPRYIVHARVGMNYQLYVRNYSRNTNYEIVATVDGLDVLNGKQGSLNNNGYIVNAGDSLAIKGFRKDKHTEAAFQFANVADSYAANSAQGDVRNTGVIGFAAFELQGQAQNALPPCSGQAFPADNNGYAPPPCRK” here?
A: not soluble

Q: With “MGSDKIHHHHHHMENRITLRHLEAFRAIMVRKSVTGAAEMLEVTQPVVTRLIADLEERIALTLFTRTKGRLVPTPEAALLVKDVEQSLLSIERIANAATNIKSLKMGRLEIAASPNMALSFLPRAINSFTLAHPEAHVSMRMHSSPTVLDMVQRDQCDLGFAMFPARSTKSGNSETLVSAKMVAVVPKTHALATKRTLRPEHFEGERFISMMPLMESRMRIDSLMLSHGVRRHVNCETQTSAAVLQLVEAGVGISIIDPLTACGYTGTGVKFLNFEPVIRNDYSIVISQRNSSTLILKPFIDHAKREILNMVPAHLLIRS” as the sequence, how does the “soluble on expression in E. coli” value read?
A: not soluble

Q: With “MGSDKIHHHHHHMVLVVDYGSQYSRLITRRIRENEVYSEVVFPDDKVDLSKVDAVILSGGPRSVYEEDAPKLPEWFQEYKGPVLAICYGMQLIVKELGGEVRRGRGEYGRTLVELSRDPIFEGIPEKVHVWMSHGDEVVRLPEGFHPIAVSETGVIAAATDGKRFWLLQFHPEVHHTEYGDRMISNFLFNVCKLEKNWKIGDLVEEKIRHIKETIGNKKAILALSGGVDSSVAAVLVHRAIGKNLVCVFVDHGLLRKNEREEVERVFKEHFDMNLVVVDARKRFLEKLRGVTDPEKKRKIIGEEFIRVFEEEAKKHDVEFLVQGTIYSDVIESAASGKTTAKIKSHHNVGGLPEKMNLKLVEPLRDLFKDEVRKVGKYLGIPDRIINRHPFPGPGLAVRVLGEVTEEKLEILREADYIFIETLRKHDYYDKVWQAFAVLLPIKSVGVKGDARAYEYVVALRAVNSVEGMTADWSRIPHDILDEAARRITREVKGVGRVVYDITSKPPATIEWE” as the sequence, how does the “soluble on expression in E. coli” value read?
A: not soluble

Q: With “MSGSVPFIRRLAVIGVGLIGGSLARALRTAGAVGEIIGIDRDEANLRQAAELGVVDRAAATVAEGVAGADMVFLSVPVRAMAGVVREIAPHLAAGCIVTDGGSVKAEVVAACDPLMPAGTCFVGGHPIAGTEHSGVGASFATLYQGKRCILTPAATTDRDALATVARMWEAAGSEVVLMDPEKHDRVVAAISHLPHMVAYALVNAVEGYDRFEESILRYSAGGFRDFTRIASSDPAMWRDIALMNREGVLEMMDHFAAYFGQLRSLVAAGDAEGLERFFRDSKESRDAILLEHHHHHH” as the sequence, how does the “soluble on expression in E. coli” value read?
A: soluble

Q: For “MGSDKIHHHHHHMHKDVSQLPQKANPALVKQANLFADLPTKLIEDFQQEFQLNQWNKGDYINSDILTQRFFVVIEGNIEIKQSNPDTGREATLDMLYAGDCFDLMVLLDNQPHEVIISPLTTVKLLSVKLSTMRYWLWTYPEFNQQFMPYIAKKMREKEQQASSLILHDVTTRLSRIILEHINKIKFYTGTKEEEHQHHLVNGLNDETLARMTGSVRQVINKQLQHWKKEDVIDKKRNQLIIKDLEALEKEAKYTQNLANAPLSKS”, which “soluble on expression in E. coli” value is on record?
A: not soluble

Q: Which “soluble on expression in E. coli” value does the source give for “GPGSMSKQLTFISAGATAAVLQSASAIVSKVAGGRVQTKTAKEAGRHAVVVGPETPIGVHTAVTEAPKSAQDPLFSGVSTVVVRAVLPRAAPDSVQLRDALDVYASAGIDTKEEVRSATEAFKKSAEVAVGKAKAKGVKRIVLVVKQASKHNCINELFKKISTETIESAGLTTEVVGTASVANQLIVNPESLGVVLLNDVAATEQIELAFAGVVGGVSRVYHTVEGGKISAGHSFKSVALAVAQELRELGLSSEADKVEAAASKNPRAVVSAL” here?
A: not soluble

Q: For “SDPVDYQAEDATIVQGAVESNHAGYTGTGFVNYDNVAGSSVEWTVTVPSAGTYDVVVRYANGTTTSRPLDFSVNGSISASGVAFGSTGTWPAWTTKTVRVTLAAGVNKIKAVATTANGGPNVDKITL”, which “soluble on expression in E. coli” value is on record?
A: soluble

Q: With “MGSDKIHHHHHHMRPVEHAVIPCAGVGSRLNRGVPKSLTEIDGRTLLGRTLLALEHIPHVFLVVGFRKELVISEALRHRRNLIFVPNEYFDQTNTLYSVKLASRLIRDDFLMVDGDVVFDPSSFASLLGQLQTCDGPAIAYSRRTTEDGVKVRLDMSRGETTCTGFFRGEGAHEWTGIGRLNNRVISGNSLFVYESIERHMPAPAYLVDSMDIDTPADLEIARATYGRHDH” as the sequence, how does the “soluble on expression in E. coli” value read?
A: not soluble

Q: For “MAKLYFYYSAMNAGKTTTLLQSAHNYRERGMRTLILTPKLDHRAGSGVVASRIGLRADGRIFERDTELQQLVERDIHNDGALHCVLVDEAQFLSRAQVWQLSEVVDRLRIPVLCYGLRTDFRGELFEGSQFLLAWADELEEIKTICHSGSKATMTVRVDAHGHAVQDGPQVEIGGNERYVSVSRAEFKKIMRGEGRIDPLQIALPLPVALEHHHHHH”, which “soluble on expression in E. coli” value is on record?
A: not soluble

Q: Which “soluble on expression in E. coli” value does the source give for “MTMPDYDLIAILGPTASGKTPFAAALAAELNTEIISADSRQIYRGMDLGTGKDLEDYTINGRQIPYHLIDIADPGYKYNVFEYQRDFLTAYETIKQKGCLPVLCGGTGLYLESVLKGYRLIPVPENQELRVRLAEKSLEELTAILSSYKTLHNSTDVDTVKRAIRAIEIEEYYAKTPIEEREFPQLNSLIIGVDIDRELRREKITRRLKQRLDDGMVEEVRRLLAEGIQPDDLIYYGLEYKYLTLYAIGKMTYDEMFTGLETAIHQFAKRQMTWFRGMERRGFTIHWVDASLPMEEKINFVKQKLKEFLEHHHHHH” here?
A: not soluble

Q: With “MDAKVAFSPHSDANGRLDEIGADIDTAQSSVLFSLAFLGQMTRGAIGPALGRALERPEVHVMGIADAEVRAGNLGLNVLTPDNRRRVVRAAALTGNVPPPFLTEPSGLAGVDGNQRGTRMHHKFVVLDFDKPTARVYLGSYNFSNPADDENGENLVVVRDRTVATSYMIEALRMYDHYVFRVLEHHHHHH” as the sequence, how does the “soluble on expression in E. coli” value read?
A: soluble

Q: With “MTSNDADIKATVCVVTYNQVEYIEQCLQSLIDQITNFEFEIIVGDDFSTDGTRRIVEDFQRKYPHVIKPIFHSRNVGAAVNFNAVHGSARGKFVAHVDGDDYMLPNKLRSQVDFMERNPNCNISWHRMYVSYGSNIKEDLLDLNNFRQLCFTRADILKFITIGMNSSKMYRAETMNFQRPDFPMLDYFANVEQIGDGQACFISSEPLGVYRAGIGIAKNDFRVKEALNSSFLYFLSKYPKLSNEINQSVLLLLLMAFKNRRYTELSLFLKVYLKSFSFFTPWKLYKDYEFIKMLRLPKLEHHHHHH” as the sequence, how does the “soluble on expression in E. coli” value read?
A: not soluble

Q: With “MSLRYTKEQCTAAEAQRLAQEIAFGPVVFQVSRLMLKFGIFQLLSGKREGYTLQEISGRTGLTRYAAQVLLEASLTIGTILLEEDRYVLAKAGWFLLNDKMARVNMEFNHDVNYQGLFHLEEALLNGRPEGLKVFGEWPTIYEGLSQLPEQVQKSWFGFDHFYSDQSFGKALEIVFSHHPKRLLDIGGNTGKWATQCVQYNKEVEVTIVDLPQQLEMMRKQTAGLSGSERIHGHGANLLDRDVPFPTGFDAVWMSQFLDCFSEEEVISILTRVAQSIGKDSKVYIMETLWDRQRYETASYCLTQISLYFTAMANGNSKMFHSDDLIRCIENAGLEVEEIQDNIGLGHSILQCRLKEGHHHHHH” as the sequence, how does the “soluble on expression in E. coli” value read?
A: soluble

Q: For “MSLQVSKFKNLPKIELHLHLDCSLSYDVVKKIDPTVDIKHYKSSFQAGESCSSLKDYLKCADNAIELMQTKENLQFIVEDLFKQLHDDNVIYAEIRFAPLLHCEGDLNAKKVVDIICMSALIQSKKYNIDYGLILCTLRHYSEDESLKTVKLVKEFSEKGVVGFDIAADEAGYPIDNHIKAFTYAKNNNLNITAHAGEAKGSESIWETINKLYAKRIGHGVRCLEDKKLVKFLSDNNYHLEICLTSNIKTNTFDLFTDHPINEIYDSSISLSLNTDGRAISNTSLSKEYAIAHSELNWSMKKIIQSNLNAIEHAFTTNEKKEKLRKHLKSFSEGHHHHHH”, which “soluble on expression in E. coli” value is on record?
A: soluble

Q: Which “soluble on expression in E. coli” value does the source give for “MKQRGGFLGGQLLIAMPGMNDKRFIRSVIYICAHSDAGAMGIILNQLHHIGFPELLLHLGVINSGQKKDLSEPIKKFPVRYGGPVDPSRGFVLHSDDYACEETVLVADKICFTATIDILKAISCEKGPQHALIALGYAGWKAGQLEAEISTNGWLISSTSPSFLFESDLNRKYDESLIRMGINPTYLVSEMGHA” here?
A: not soluble

Q: Which “soluble on expression in E. coli” value does the source give for “MLDPELIGNPEDILEKPALKILGKEVEVYDLSNPFGYGVPLWPYFNDVIIDRYHYHAKSRVLSQIITTTMHVSTHADAPIHVEEGFPSIDEVPIERYMGEGVVVSIPKKKWEVITAEDLEKADPPIEKGDIVIVNTGWHRYWSDSVKYFCYAPGFYKEAGEWFVKKKVKAVGIDTQALDHPLATREAWHHPGADERNSILPWLKEEYKQLTGRDVSEDFPYWEPCHRLLLTHGIMGWENVGGDIDKVTGQRCTIIGLPIRWVKGDGSIVRLVALVEKR” here?
A: soluble

Q: With “MSLSKQISNLNSSSNKPKILSLFSGCGGLDLGFHQAGCETVWANDFSHWACESFRKNIGDVIVEGDIEQINPNDPTIPDCDIILGGFPCQDFSMIWKQPGLEGERGNLYKSFLRFVNAKKPKVFVAENVKGLLTANKKKAIQQIITDFENCGYYVQAKLYNFAEFGVPQFRERVLIVGVRLDTGFDFRHPEPTHNETGENGLKPYVTAGQAISNIPQNASNNELLKISDKTRRMLELIPEGGNFTDIPKDHPLYVKGMISHVYRRMHRNEPSKTIIAAGGGGTWGYHFPEPRAFTNRERARLQSFPDDFEFVGSTTEVRRQIGNAVPPQGVVELAKSILPIFSDNYEKVDLHEKLVEEKEILFHDRLSKIRGGKEGHHHHHH” as the sequence, how does the “soluble on expression in E. coli” value read?
A: soluble

Q: For “MSLHFLYYCSEPTLDVKIAFCQGFDKQVDVSYIAKHYNMSKSKVDNQFYSVEVGDSTFTVLKRYQNLKPIGSGAQGIVCAAYDAVLDRNVAIKKLSRPFQNQTHAKRAYRELVLMKCVNHKNIISLLNVFTPQKTLEEFQDVYLVMELMDANLCQVIQMELDHERMSYLLYQMLCGIKHLHSAGIIHRDLKPSNIVVKSDCTLKILDFGLARTAGTSFMMTPYVVTRYYRAPEVILGMGYKENVDIWSVGCIMGEMVRHKILFPGRDYIDQWNKVIEQLGTPCPEFMKKLQPTVRNYVENRPKYAGLTFPKLFPDSLFPADSEHNKLKASQARDLLSKMLVIDPAKRISVDDALQHPYINVWYDPAEVEAPPPQIYDKQLDEREHTIEEWKELIYKEVMNSEEKTKNGVVKGQPSPSGAAVNS”, which “soluble on expression in E. coli” value is on record?
A: soluble
